Data on 19 sequences can be found in the DeepSol protein solubility set.

A short description of this data set: soluble on expression in E. coli; label from the status in PepcDB or PDB records.
With “RSLKNEELYHQSYDCVCVMFASIPDFKEFYTESDVNKEGLECLRLLNEIIADFDDLLSKPKFSGVEKIKTIGSTYMAATGLSAIPSQEHAQEPERQYMHIGTMVEFAYALVGKLDAINKHSFNDFKLRVGINHGPVIAGVIGAQKPQYDIWGNTVNVASRMDSTGVLDKIQVTEETSLILQTLGYTCTCRGIINVKGKGDLKTYFVNTEMSR”, the “soluble on expression in E. coli” value was “soluble”.

In the case of “MSLEKLLRYLNDNDADKWQKNREKLDDETKAYYAEDLSLMDVLNDLWNGQSEQAATLYFGCYEKAAQNNFPSICEGEKIPLSQIRDKADQSIINLLEASKDKIPFSRALLDSIHATEYPVDSAMLQRLQNIREVALLEGMLKAPTPIIYQTYVKEYPNGKFIAQVNASENVRLYQLVKTAPTPANFKAFFEDPEMQKYYQDRGPRPYLAEVRTLYDDFLFQRIDSLKKEGNATAIRQIIDDYKNTPYLSTGARTHLNDLEYLSEKADFELLKPAIVNSESLGLLQEFLKTHKYKEFRDQAKNLRAPFILQAIVSTPTTVKYYTQGRLIKCCETDSTGNITTSYTYNDKGQLTTTLSVTEKNGQPINEVQTSRLYDPQGHCIFEVKTNPKTKTDFYRRARRIGIDGSIESDSLKYMDGRYTVSSYNKQGLLTETKEYNKNGEMEGYTVNKYDDKGRMTESQHQNMLFVNSPNQILSQKELYEYDKYGYLTRIVYQRIFGNSQKTSGCLTCLYDEYGNRIDGDSYYEYDNTGQWICRTSYDNPQQVERIQYIYKEGHHHHHH”, the “soluble on expression in E. coli” value is “soluble”.

For the sequence “FPDGTLGMDAAVQEDHDNGTQLDSLTLASINTDFAFSLYKELVLKNPDTNIVFSPLSISAALALVSLGAKGNTLEEILEGLKFNLTETSEADIHQGFGHLLQRLNQPKDQVQISTGSALFIEKRQQILTEFQEKAKTLYQAEAFTADFQQPRQAKKLINDYVRKQTQGMIKELVSDLDKRTLMVLVNYIYFKAKWKVPFDPLDTFKSEFYCGKRRPVIVPMMSMEDLTTPYFRDEELSCTVVELKYTGNASALFILPDQGRMQQVEASLQPETLRKWKNSLKPRMIDELHLPKFSISTDYSLEDVLSKLGIREVFSTQADLSAITGTKDLRVSQVVHKAVLDVAETGTEAAAATGVKFVPMSAKLYPLTVYFNRPFLIMIFDTETEIAPFIAKIANPK”, the “soluble on expression in E. coli” value is reported as “soluble”.

“MSTVGGIEQLIPDSVSTSFIETVNGSHQFTIQGYSLAKGMSPGKFIQSDIFSVGGYDWAIYFYPDGKNPEDQSSYISLFIALASDSNDIRALFELTLMDQSGKGKHKVHSHFDRALEGGPYTLKYKGSMWGYKRFFKRSALETSDYLKDDCLVINCTVGVVRARLEGPKQYGIVLPLSNMGQGLKDLLDSEVGCDIAFQVGDETYKAHKLILAARSPVFRAQFFGPIGNNNVDRIVIDDIEPSIFKAMLSFIYTDVLPNVHEITGSTSASSFTNMIQHLLAAADLYDLARLKILCEVLLCEKLDVDNVATTLALAEQHQFLQLKAFCLEFVASPANLGAVMKSEGFKHLKQSCPTLLSELLNTVAAADKSSTSGQSNKKRSASSVLGCDTTNVRQLRRRTRKEVRAVS”: the “soluble on expression in E. coli” value is “not soluble”. For the sequence “MTGALAMMPSTSSPYPLLAPPTCSSRLPPLRCFVGLRWSAPRIQVREYPDAVAGIAKGAGGRGGRFRAPASSISQPCSRTIIITNEHVQNADFPPNYSKREKKPFPIPVLELRRRAKERAKKAEGKPKRSLPPPKNGMLIKRLIPVAYKVYNARILLINNLKRLMKVIPVKGCKHCSEIHVGSVGHPFRTCKGMSSDKRRGQHDWGGTLVEAVFVPVEAYHLEDRLGKRIPHDQRFAVPRIPALVELCIQAGVNLPEYPTKRRRKPIIKIGKNEFVDANEDDLPDPEPYKLEHPILEELNDNEIIAPASPEEIVALAEETLEAWEVVRDGALKLMKGYAVRVCGYCPEVHIGASGHKARNCGAFKHQQRNGQHGWQAAVLDDLIPPRYVWHLPESGEDLQRDLKSFYGQAPAIVEICVQAGAKVPEKYKATMRLDIGIPTSLREAEMVV”, the “soluble on expression in E. coli” value is reported as “not soluble”.

“MGSDKIHHHHHHMVNSLTTPEPQTLKPGVKAPVQETLLTPRFYTTDFDAVANLDISANEAEIRAVVEELRADYNRHHFVRDEEFKQSWDHITGEKRRAFIDFLERSCTSEFSGFLLFKELSRRIKSRNPLLAEAFEFMARDEARHAGFLNKSMSDLNLSLDLNYLTKNRTYTFFPPEWVIYTVYLSEKIGYWRYILVHQHMQEHPEYQFYPLFRKFESWCQDENRHGDFFKALLRSQPQLWKNWKARLWVRFFLLTVFVTHTMTVFERASFYESIGIHPRKYNNRVIQETNNTSARAFPLILNTNHPLFFWRLEQCWENNMKLAAIKNNKLPNFVKFFQRIPPATAIFWNMLRLFLIKPIDTEATRGTVL”: the “soluble on expression in E. coli” value was “not soluble”. In the case of “MGFEDLVEVTTMIADLTTDQREALLLTQLLGLSYADAAAVCGCPVGTIRSRVARARDALLADAEPDDLTG”, the “soluble on expression in E. coli” value is given as “soluble”. As for “MAGDPMITETQLTAIQTYALQKLAHDHSGHGRDHLQRVNRLARRLAKDEGANLNLTLAAAWLHDVIDDKLMANPAKAHQDLIVQLNAQNVTADDQTAIFAIIDHMSFSKSFNGPQKLSLEGQVVQDADRLDAIGAIGIARALYYSGHVGEKIYDPAIAPREHMTREQYRHQPGTAINHFYEKLFKLAALMNTDTAKALAAHRTAVMHEFVDQFKAEWTADDKALEHHHHHH”, the “soluble on expression in E. coli” value is on record as “soluble”.

Consider “MGSDKIHHHHHHVNVEVCLFLIGHGAPGSEAGSTELSRFEAASQDIEGLRRFAIHVPAQADDCDPLSKTDASTCPRCVLQWYFDDLELLERTLQPGRAIHDLVDGSSNNGLTFTHQVMAVRTFATPNPSGPGTRAERCTYLVSYEGEAQDFNAWLTHYLLHHPPLMAQLPGIRELEIYTRLDYRSGLRIRRATAMQRNKVVFDDPAALAAALASPVRASMKQDFNAFPPYSGATLHFPMRSIYGNLKPK”, for which the “soluble on expression in E. coli” value was “not soluble”. To “MAHHHHHHMLSASSSSSELETADDASVEHAALAYERVRREHALQRYLKAREAYEVACIARERRQLVVQSHNHTLRLLGQVVCDVKAVVDGTLKEGLSVRESTATAAEMLLASSCYKRAERGLVTLLAHEGRQHEVLRAATSPATETSRIPQVFSSGSRAEKPVASSPAKHMLRPLLLLCEWRLDYATLLCRQRLPLFSELARAQRVVSNSRESAREARGRMSAPTTPVVQRCQVQVAEARASLAKARAFQRSLKDRLHQLHQMLSRSAPVHAESGVFVDAGVAEEIQARLRQELAVGHVTLLRILCESLSGAFDERGRLTAL” belongs “not soluble”; to “MGSDKIHHHHHHMIPLHTSMRGLRCFCVAAECLSFKETAKRLYLTPSAVSHQIKQLEESLNQSLFIRQTRAVTLTEVGARFYQAIEPVMQQLVNTVSEFNQSDRMLEVSISMPEFFASELFMPKLIGWSSKYPNINLKLETIKSRSDMIKHTDASIMLSGKQQTNADVYDLFPITYIPACNAQLHAELSSQGFKALTQVPLILHKARPYAWHQWAENVGFDAFQPKQIIQLDSMFSVARAAEQGLGIALIPLPISQAWFDNGTLLSLFPHPLFSHDRYYLIRHTNEQQRPEVQLLIDWILKSFHDESH”, “not soluble”; to “MKIALMMENSQASKNAIIYNELSAVANEKGFPVFNVGMCDENDHHLTYIHLGIMASILLNANAVDFVVTGCGTGQGALMSLNIHPGVICGYCIDPADAFLFAQINNGNALSLPFAKGFGWGAELNVRFIFEKAFTGRKGEGYPPERKAPQVRNAGILNQVKAAVVKENYLDTLRAIDPELVKTAVSGPRFQQCLFENGQNKEIEAFVREMLG”, “not soluble”. On to “MSNEMYYVQASDPAILEKGECGGAVTALFKYLLDKGIVDGVLALKKGVDVYDAIPTFVTSSEDLLSTAGSLHCAPTMWGGIIKEYLQDAKIAVPVKPCDMRAIVELAKRAQINLDNVYMIGLNCGGTVPPKTAMEMIKLFYEVDPKDVVKEEIDKGKFIIVMKDGSHKEVKMHDLEDNGYGRRVNCQRCDEKIPRKADIAAGNWGVIGEDAGKYTFMEVCTEKGKQLLKDAEKDGYVKTKAPNPKGLEIRAKVESSMLKMGEDYKNKWLEEKYPTIEEWNRQWNKCIKCYGCRDVCPVCFCRECALTADYVDTGSIPPDPIMFQGVRMSHMAFSCVNCGQCEDVCPMEIPVARIFHKIQEKTRKELGYRPGVDDEAPPALGGSCPTQLEHHHHHH”, for which the “soluble on expression in E. coli” value is on record as “not soluble”. In the case of “MRWNICVVGAGKIGQMIAALLKTSSNYSVTVADHDLAALAVLNRMGVATKQVDAKDEAGLAKALGGFDAVISAAPFFLTPIIAKAAKAAGAHYFDLTEDVAATNAVRALAEDSQTAFMPQCGLAPGFVGIAGAALAAEFDEIDSLHMRVGALPLYPTNALKYNLTWSTDG”, the “soluble on expression in E. coli” value is listed as “not soluble”. With “MGSDKIHHHHHHMRNQILKKATVSIMLLLCINVSVADTSTSVSCAESGSASAYSRSGNSVSYSSVNCSSNNEQNAMTPAGIAVSKSYSPEPYTSLVLSGAFNTEIKTSSENRVIISGDSNYVESVEVNSSDGELIIRRPGPGNDNLNVIVESISLQKLKISGAGSTNIYGDFPDGLSVRKSGAGSINIEGQASTLKLNLSGAGNTTARDFTVDNVEIDATGAGNIAVCAKKSVAGSLAGAVHFKVYCNPSQRSVNTRGVSRVSYR”, the “soluble on expression in E. coli” value was “not soluble”.

For the sequence “MGSDKIHHHHHHMSLKMKLIYVVESSVPYGANKCLIEIIDRLDKDKHEVMVVGADEGALSSWLRERNVSYVSLNHRLSIYPVLNSRKDYLLWLPRLFRRVALNVIAMVKFFKICKRFKPDIVHTNVGPCSLGYFVATYLGIKHVWHVREYQDLDFGMSFFPNRKAFLKRLKRSDAVICITNSIAAHFHLTDNENLAVINDGVISDEKEIDIIQKENYFLFAGRLEAAKGIEEAIESFFEFCETDSSGISFYVAGDGNFNYLKKLKEKVSKSNFSNRVRFLGFRDDIFALMRMAKALVVASRCEGFGLITAEAMYQGTLVIGRDTGGTSEILKDSKGIHYGFLFNSIDELTKLMHEVVDLSPDEYTKMARSAQRRTLDKYTINRNFREISDVYNTLM”, the “soluble on expression in E. coli” value is recorded as “not soluble”. As for “MSLKGIVFGSGQIGSSVALNLVDGMDVTVADRDPTNLRKIQDNIGSRVSVIQVDALRDDIKHIISDYDIVVSALPGSVGFQFAKSIAPFGVRMIDISYYEDDVFLLDDVAKKSSSVIVPDIGFAPGISNVLVGHFSYELEDVKDVHIYVGGIPEKRIGGLDYVITWSVEGLLDEYTRPVHIVQNGSITQVEPLSGLEKINIQKYTDLEAFYTDGLRTLGKTIRASGSMWEKTVRYSGHAEKIRLLKDLGFFSRKKVKVGNSEIAPFDFTAEIFRNNLSMSGVKDVSLMYVKVTGTRNGDIVKHEASMVAPYDEKRKRSSMANVTSVPASATADFLSKNEIGKYGVVAPEILGKDENFYKQFINYLGQYGIIISEGHHHHHH”, the “soluble on expression in E. coli” value is recorded as “not soluble”. Regarding “MKELETRIIDIDVEKLRETLNKLGAKNVKRENQTNDIFDFPDRKLLDKKGYARIRTVEDLINNKTVYFMTTKKMLSQDKFKVMEENETIIEDGAMGKNIFKSLGLELFETIKKYRESYKYKDSLIEIDINDPSFCPFPYIEIETSSEEKLNEILIDLGYSMEDTTSKTIYEILKDKGISPDSNKKGLLEHHHHHH”, the “soluble on expression in E. coli” value is “soluble”. Take “MGSDKIHHHHHHMNKNMIKGMIVFAAIAEKGSMSAAAQQLNLSSSAVSQQVTKLEMDMGISLFHRNTRNLTLTEAGSLFYENCRKVIAIVESTEQKLNNLKGIPSGELKIAAPIGFGGGLLSEPFNYLLAAHPQISLNLLLQDGPIDIVNEGIDLAICIGPLSDSNLIARHLADWRMLLCASPDYLPMHKIFKHPAELAAFNRINHPCANSETLTHVRNKECFELTSQRITVNNMQALIQLTLDGLGFAALPEPEVHKYLESGQLVTLLPEWSLNTYSVYSVTSARDKQPAKVKEALNTLSQYFSQANFNPAYHFKQCVQKDGTKGSVTNILPIKPKQASHHADVDHAS”: the “soluble on expression in E. coli” value was “not soluble”.
